Measured values as given in article PMC9330529.

Tests used:
[1] = biological target: SARS-CoV-2 spike protein Delta (SARS-CoV-2 (Delta variant)) (UniProt P0DTC2); assay: streptavidin bead fluorescence binding
[2] = biological target: SARS-CoV-2 spike protein Delta (SARS-CoV-2 (Delta variant)) (UniProt P0DTC2); assay: flow cytometry on Ni-NTA beads

**Q.** How did the Kd [1] turn out when “CGCAGCACCCAAGAACAAGGACTGCTTAGGATTGCGATAGGTTCGGAAAAAAGGCGGGTTCCTAGACTTGTACTCAGCCT [S1B6C3-A5-S2A2C1]” was run?
**A.** 0.0341 µM

**Q.** What about the Kd [2] of the same sequence?
**A.** 0.0326 µM
